Biological target: recombinant mature human CD73 (soluble CD73, GPI anchor signal peptide replaced by a C-terminal 6x-histidine tag) (human)
Assay: SEC-MALS

## recombinant mature human CD73 (soluble CD73, GPI anchor signal peptide replaced by a C-terminal 6x-histidine tag) (enzyme)
  stoichiometry N: 2

Reference: publication PMC5037986
